Legend:
[1] = target: DS153 (BaxA N29S) (Bacillus amyloliquefaciens)
[2] = target: catalytic domain of Thermomonospora fusca TF xylanase A (TfxA_CD) (Thermomonospora fusca TF)
[3] = target: recombinant Bacillus amyloliquefaciens xylanase A (reBaxA) (Bacillus amyloliquefaciens)
[4] = target: DS428 (BaxA I51V) (Bacillus amyloliquefaciens)
[5] = target: DS241 (BaxA S31R) (Bacillus amyloliquefaciens)

B1: recombinant rice xylanase inhibitor (rePRIXI) (natural protein)
chain: AGKTGQMTVFWGRNKNEGTLKETCDTGLYTTVVISFYSVFGHGRYWGDLSGHDLRVIGADIKHCQSKNIFVFLSIGGAGKDYSLPTSKSAADVADNIWNAHMDGRRPGVFRPFGDAAVDGIDFFIDQGAPDHYDDLARNLYAYNKMYRARTPVRLTATVRCAFPDPRMKKALDTKLFERIHVRFYDDATCSYNHAGLAGVMAQWNKWTARYPGSHVYLGLAAANVPGKNDNVFIKQLYYDLLPNVQKAKNYGGIMLWDRFYDKQTGYGKTVKYWA
For B1, the inhibitory rate of xylanase activity after incubation of the xylanase with rePRIXI at 50°C for 40 min (residual activity on beechwood xylan) [1] was 14.8%, the inhibitory rate of xylanase activity after incubation of the xylanase with rePRIXI at 50°C for 40 min (residual activity on beechwood xylan) [2] was 11.2% and the inhibitory rate of xylanase activity after incubation of the xylanase with rePRIXI at 50°C for 40 min (residual activity on beechwood xylan) [3] was 30.3%. The inhibitory rate of xylanase activity after incubation of the xylanase with rePRIXI at 50°C for 40 min (residual activity on beechwood xylan) [4] was 11.3% and the inhibitory rate of xylanase activity after incubation of the xylanase with rePRIXI at 50°C for 40 min (residual activity on beechwood xylan) [5] was 20.5%.

Source: article PMC6883096
